Bridges are numbered along the chain shown (N, C = ends). Where no end group is shown, it is not given here. [ ]: non-standard residue; d: D form. The star is where a group is joined. Palmitoyl = CCCCCCCCCCCCCCCC(=O)*; Aib = CC(C)(N)C(=O)O
T1: human GIP receptor (human, UniProt P48546 22-466)
T1 sequence (looked up): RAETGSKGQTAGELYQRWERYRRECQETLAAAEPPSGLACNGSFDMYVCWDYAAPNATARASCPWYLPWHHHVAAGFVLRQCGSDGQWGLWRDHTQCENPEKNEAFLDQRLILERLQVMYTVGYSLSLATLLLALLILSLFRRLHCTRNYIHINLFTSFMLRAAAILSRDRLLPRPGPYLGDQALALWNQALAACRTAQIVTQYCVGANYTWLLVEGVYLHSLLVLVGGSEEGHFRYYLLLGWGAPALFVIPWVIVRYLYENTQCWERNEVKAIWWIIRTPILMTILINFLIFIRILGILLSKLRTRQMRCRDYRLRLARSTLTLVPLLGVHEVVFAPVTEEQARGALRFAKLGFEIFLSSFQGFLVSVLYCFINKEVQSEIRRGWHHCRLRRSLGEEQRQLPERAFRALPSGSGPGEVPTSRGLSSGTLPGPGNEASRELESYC

B1: Analog 057 (peptide)
peptide: Y[Aib]EGTFTSDYSIYMEKEAVKEFIAWLVKG-NH2
modifications: N-terminus assumed
SMILES: CC[C@H](C)[C@H](NC(=O)[C@H](Cc1ccccc1)NC(=O)[C@H](CCC(=O)O)NC(=O)[C@H](CCCCN)NC(=O)[C@@H](NC(=O)[C@H](C)NC(=O)[C@H](CCC(=O)O)NC(=O)[C@H](CCCCN)NC(=O)[C@H](CCC(=O)O)NC(=O)[C@H](CCSC)NC(=O)[C@H](Cc1ccc(O)cc1)NC(=O)[C@@H](NC(=O)[C@H](CO)NC(=O)[C@H](Cc1ccc(O)cc1)NC(=O)[C@H](CC(=O)O)NC(=O)[C@H](CO)NC(=O)[C@@H](NC(=O)[C@H](Cc1ccccc1)NC(=O)[C@@H](NC(=O)CNC(=O)[C@H](CCC(=O)O)NC(=O)C(C)(C)NC(=O)[C@@H](N)Cc1ccc(O)cc1)[C@@H](C)O)[C@@H](C)O)[C@@H](C)CC)C(C)C)C(=O)N[C@@H](C)C(=O)N[C@@H](Cc1c[nH]c2ccccc12)C(=O)N[C@@H](CC(C)C)C(=O)N[C@H](C(=O)N[C@@H](CCCCN)C(=O)NCC(N)=O)C(C)C
B2: Analog 053-1 (peptide)
peptide: Y[Aib]EGTFTSDYSIYMEKEAVEEFIAWLVKG-NH2
modifications: N-terminus assumed
SMILES: CC[C@H](C)[C@H](NC(=O)[C@H](Cc1ccccc1)NC(=O)[C@H](CCC(=O)O)NC(=O)[C@H](CCC(=O)O)NC(=O)[C@@H](NC(=O)[C@H](C)NC(=O)[C@H](CCC(=O)O)NC(=O)[C@H](CCCCN)NC(=O)[C@H](CCC(=O)O)NC(=O)[C@H](CCSC)NC(=O)[C@H](Cc1ccc(O)cc1)NC(=O)[C@@H](NC(=O)[C@H](CO)NC(=O)[C@H](Cc1ccc(O)cc1)NC(=O)[C@H](CC(=O)O)NC(=O)[C@H](CO)NC(=O)[C@@H](NC(=O)[C@H](Cc1ccccc1)NC(=O)[C@@H](NC(=O)CNC(=O)[C@H](CCC(=O)O)NC(=O)C(C)(C)NC(=O)[C@@H](N)Cc1ccc(O)cc1)[C@@H](C)O)[C@@H](C)O)[C@@H](C)CC)C(C)C)C(=O)N[C@@H](C)C(=O)N[C@@H](Cc1c[nH]c2ccccc12)C(=O)N[C@@H](CC(C)C)C(=O)N[C@H](C(=O)N[C@@H](CCCCN)C(=O)NCC(N)=O)C(C)C
B3: Analog 052-1 (peptide)
peptide: Y[Aib]EGTFTSDYSEYMEKEAVREFIAWLVKG-NH2
modifications: N-terminus assumed
SMILES: CC[C@H](C)[C@H](NC(=O)[C@H](Cc1ccccc1)NC(=O)[C@H](CCC(=O)O)NC(=O)[C@H](CCCNC(=N)N)NC(=O)[C@@H](NC(=O)[C@H](C)NC(=O)[C@H](CCC(=O)O)NC(=O)[C@H](CCCCN)NC(=O)[C@H](CCC(=O)O)NC(=O)[C@H](CCSC)NC(=O)[C@H](Cc1ccc(O)cc1)NC(=O)[C@H](CCC(=O)O)NC(=O)[C@H](CO)NC(=O)[C@H](Cc1ccc(O)cc1)NC(=O)[C@H](CC(=O)O)NC(=O)[C@H](CO)NC(=O)[C@@H](NC(=O)[C@H](Cc1ccccc1)NC(=O)[C@@H](NC(=O)CNC(=O)[C@H](CCC(=O)O)NC(=O)C(C)(C)NC(=O)[C@@H](N)Cc1ccc(O)cc1)[C@@H](C)O)[C@@H](C)O)C(C)C)C(=O)N[C@@H](C)C(=O)N[C@@H](Cc1c[nH]c2ccccc12)C(=O)N[C@@H](CC(C)C)C(=O)N[C@H](C(=O)N[C@@H](CCCCN)C(=O)NCC(N)=O)C(C)C
B4: Analog 052-2 (peptide)
peptide: Y[Aib]EGTFTSDYSEYMEKEAVREFIAWLVKG-NH2
modifications: lactam 12-16; N-terminus assumed
SMILES: CC[C@H](C)[C@H](NC(=O)[C@H](Cc1ccccc1)NC(=O)[C@H](CCC(=O)O)NC(=O)[C@H](CCCNC(=N)N)NC(=O)[C@@H](NC(=O)[C@H](C)NC(=O)[C@H](CCC(=O)O)NC(=O)[C@@H]1CCCCNC(=O)CC[C@H](NC(=O)[C@H](CO)NC(=O)[C@H](Cc2ccc(O)cc2)NC(=O)[C@H](CC(=O)O)NC(=O)[C@H](CO)NC(=O)[C@@H](NC(=O)[C@H](Cc2ccccc2)NC(=O)[C@@H](NC(=O)CNC(=O)[C@H](CCC(=O)O)NC(=O)C(C)(C)NC(=O)[C@@H](N)Cc2ccc(O)cc2)[C@@H](C)O)[C@@H](C)O)C(=O)N[C@@H](Cc2ccc(O)cc2)C(=O)N[C@@H](CCSC)C(=O)N[C@@H](CCC(=O)O)C(=O)N1)C(C)C)C(=O)N[C@@H](C)C(=O)N[C@@H](Cc1c[nH]c2ccccc12)C(=O)N[C@@H](CC(C)C)C(=O)N[C@H](C(=O)N[C@@H](CCCCN)C(=O)NCC(N)=O)C(C)C
B5: Analog 053-2 (peptide)
peptide: Y[Aib]EGTFTSDYSIYMEKEAVEEFIAWLVKG-NH2
modifications: lactam 16-20; N-terminus assumed
SMILES: CC[C@H](C)[C@H](NC(=O)[C@H](Cc1ccccc1)NC(=O)[C@H](CCC(=O)O)NC(=O)[C@@H]1CCC(=O)NCCCC[C@H](NC(=O)[C@H](CCC(=O)O)NC(=O)[C@H](CCSC)NC(=O)[C@H](Cc2ccc(O)cc2)NC(=O)[C@@H](NC(=O)[C@H](CO)NC(=O)[C@H](Cc2ccc(O)cc2)NC(=O)[C@H](CC(=O)O)NC(=O)[C@H](CO)NC(=O)[C@@H](NC(=O)[C@H](Cc2ccccc2)NC(=O)[C@@H](NC(=O)CNC(=O)[C@H](CCC(=O)O)NC(=O)C(C)(C)NC(=O)[C@@H](N)Cc2ccc(O)cc2)[C@@H](C)O)[C@@H](C)O)[C@@H](C)CC)C(=O)N[C@@H](CCC(=O)O)C(=O)N[C@@H](C)C(=O)N[C@@H](C(C)C)C(=O)N1)C(=O)N[C@@H](C)C(=O)N[C@@H](Cc1c[nH]c2ccccc12)C(=O)N[C@@H](CC(C)C)C(=O)N[C@H](C(=O)N[C@@H](CCCCN)C(=O)NCC(N)=O)C(C)C
B6: Analog 060 (peptide)
peptide: Y[Aib]EGTFTSDYSIYMEKEAVREFIAWLVKGKKKKK-NH2
modifications: N-terminus assumed
SMILES: CC[C@H](C)[C@H](NC(=O)[C@H](Cc1ccccc1)NC(=O)[C@H](CCC(=O)O)NC(=O)[C@H](CCCNC(=N)N)NC(=O)[C@@H](NC(=O)[C@H](C)NC(=O)[C@H](CCC(=O)O)NC(=O)[C@H](CCCCN)NC(=O)[C@H](CCC(=O)O)NC(=O)[C@H](CCSC)NC(=O)[C@H](Cc1ccc(O)cc1)NC(=O)[C@@H](NC(=O)[C@H](CO)NC(=O)[C@H](Cc1ccc(O)cc1)NC(=O)[C@H](CC(=O)O)NC(=O)[C@H](CO)NC(=O)[C@@H](NC(=O)[C@H](Cc1ccccc1)NC(=O)[C@@H](NC(=O)CNC(=O)[C@H](CCC(=O)O)NC(=O)C(C)(C)NC(=O)[C@@H](N)Cc1ccc(O)cc1)[C@@H](C)O)[C@@H](C)O)[C@@H](C)CC)C(C)C)C(=O)N[C@@H](C)C(=O)N[C@@H](Cc1c[nH]c2ccccc12)C(=O)N[C@@H](CC(C)C)C(=O)N[C@H](C(=O)N[C@@H](CCCCN)C(=O)NCC(=O)N[C@@H](CCCCN)C(=O)N[C@@H](CCCCN)C(=O)N[C@@H](CCCCN)C(=O)N[C@@H](CCCCN)C(=O)N[C@@H](CCCCN)C(N)=O)C(C)C

Each binder was assayed against T1, human GIP receptor (assay: cell-based or functional assay).

Row | EC50, GIP Receptor cAMP induction [nM] | Relative Potency, GIP Receptor [%] | Binder
1 | 0.57 | 36.8 | B1
2 | 0.5 | 34 | B2
3 | 0.57 | 36.8 | B3
4 | 0.064 | 147 | B4
5 | 0.48 | 35.4 | B5
6 | 2.5 | 8.4 | B6

The binders below were run against human GLP-1 receptor (human, UniProt P43220 24-463) (assay: cell-based or functional assay).
Sequence of human GLP-1 receptor (P43220 24-463): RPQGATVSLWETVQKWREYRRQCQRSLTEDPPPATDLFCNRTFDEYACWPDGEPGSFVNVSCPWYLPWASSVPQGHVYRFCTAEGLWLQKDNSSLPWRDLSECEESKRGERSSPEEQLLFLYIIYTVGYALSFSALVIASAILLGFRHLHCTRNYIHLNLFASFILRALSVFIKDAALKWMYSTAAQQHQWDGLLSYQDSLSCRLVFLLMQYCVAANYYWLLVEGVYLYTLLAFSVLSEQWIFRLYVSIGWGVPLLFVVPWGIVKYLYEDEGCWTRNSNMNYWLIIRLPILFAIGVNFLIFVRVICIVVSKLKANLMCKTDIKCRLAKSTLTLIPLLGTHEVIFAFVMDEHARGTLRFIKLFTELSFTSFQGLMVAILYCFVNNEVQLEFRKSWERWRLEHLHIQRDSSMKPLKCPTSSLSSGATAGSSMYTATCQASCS

Row | EC50, GLP-1 Receptor cAMP induction [nM] | Relative Potency, GLP-1 Receptor [%] | Binder
7 | 4.23 | – | B1
8 | 12.7 | – | B2
9 | 2.5 | – | B3
10 | 0.824 | 133 | B4
11 | 2.96 | 37 | B5
12 | 2.97 | 36.8 | B6
13 | 6.52 | – | Y[Aib]EGTFTSDYSIYMEKEAVREFIAWLVK(Palmitoyl)G-NH2 [Analog 046]

— patent US20140162945A1 (BEIJING HANMI PHARMACEUTICAL, published 2014)
